According to patent US20230012273A1 (Boehringer Ingelheim, published 2023):

T1: cynomolgus SIRPβ1v3 (XP_005568593) extracellular domain + His-tag (cynomolgus monkey)
T1 construct: SPR analyte; also called Cyno SIRPβ1v3 XP_005568593; cynoSIRPβ1v3; not shown: His-tag
T1 chain: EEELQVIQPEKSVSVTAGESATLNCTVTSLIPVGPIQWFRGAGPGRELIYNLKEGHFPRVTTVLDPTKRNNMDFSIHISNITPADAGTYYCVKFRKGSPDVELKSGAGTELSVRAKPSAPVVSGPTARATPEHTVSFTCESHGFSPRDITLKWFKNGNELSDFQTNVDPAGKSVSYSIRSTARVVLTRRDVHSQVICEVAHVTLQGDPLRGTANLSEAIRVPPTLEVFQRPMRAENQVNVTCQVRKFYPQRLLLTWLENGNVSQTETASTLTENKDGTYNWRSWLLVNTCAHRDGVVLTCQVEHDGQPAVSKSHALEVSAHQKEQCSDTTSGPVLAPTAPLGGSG

T2: cynomolgus SIRPγ (XP_005568591) extracellular domain + His-tag (cynomolgus monkey, UniProt Q9P1W8 29-359 (human entry))
T2 construct: SPR analyte; also called Cyno SIRPγ XP_005568591; cynoSIRPγ; not shown: His-tag
T2 chain: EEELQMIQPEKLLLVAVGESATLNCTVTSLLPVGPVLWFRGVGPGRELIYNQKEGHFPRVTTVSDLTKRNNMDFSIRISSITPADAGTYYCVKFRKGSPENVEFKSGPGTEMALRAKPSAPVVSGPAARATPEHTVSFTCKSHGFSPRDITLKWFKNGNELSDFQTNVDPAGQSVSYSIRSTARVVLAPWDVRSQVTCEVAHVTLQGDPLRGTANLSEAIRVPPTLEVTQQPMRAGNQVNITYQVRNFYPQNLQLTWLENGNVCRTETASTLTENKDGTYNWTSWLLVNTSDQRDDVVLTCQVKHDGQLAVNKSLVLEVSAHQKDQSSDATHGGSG

T3: cynomolgus SIRPβ1 (XP_005568598) extracellular domain + His-tag (cynomolgus monkey)
T3 construct: SPR analyte; also called Cyno SIRPβ1 XP_005568598; cynoSIRPβ1; not shown: His-tag
T3 chain: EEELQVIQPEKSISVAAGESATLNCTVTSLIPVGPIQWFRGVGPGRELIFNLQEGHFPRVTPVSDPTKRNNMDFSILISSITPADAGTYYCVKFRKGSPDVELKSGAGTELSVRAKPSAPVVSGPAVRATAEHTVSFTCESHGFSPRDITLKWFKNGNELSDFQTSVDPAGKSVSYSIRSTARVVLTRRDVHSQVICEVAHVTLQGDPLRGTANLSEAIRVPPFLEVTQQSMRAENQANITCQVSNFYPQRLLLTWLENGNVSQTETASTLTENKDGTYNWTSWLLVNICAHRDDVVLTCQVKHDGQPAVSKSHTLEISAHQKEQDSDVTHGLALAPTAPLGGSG

T4: cynomolgus SIRPα (EGM_02252) extracellular domain + His-tag (cynomolgus monkey)
T4 construct: SPR analyte; also called CySIRPα EGM_02252; cynoSIRPα; not shown: His-tag
T4 chain: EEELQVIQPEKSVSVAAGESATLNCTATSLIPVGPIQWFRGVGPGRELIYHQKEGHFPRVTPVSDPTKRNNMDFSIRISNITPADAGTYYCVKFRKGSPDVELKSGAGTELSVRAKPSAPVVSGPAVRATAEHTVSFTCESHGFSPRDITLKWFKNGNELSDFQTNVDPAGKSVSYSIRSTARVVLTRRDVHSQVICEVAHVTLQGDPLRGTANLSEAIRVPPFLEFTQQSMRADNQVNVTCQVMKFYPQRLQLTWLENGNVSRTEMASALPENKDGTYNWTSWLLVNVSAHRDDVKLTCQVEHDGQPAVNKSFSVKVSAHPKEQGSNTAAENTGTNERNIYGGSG


Key:
[1] = target: T1, cynomolgus SIRPβ1v3 (XP_005568593) …; assay: SPR, antibody captured, ECD-His analyte
Procedure: (§1) The binding affinity of anti-SIRPα antibodies to the various SIRPα analytes is determined by surface plasmon resonance (SPR) using a ProteOn XPR36 (Bio-Rad). The running buffer for this experiment and all dilutions (except where stated) are done in 1×HBS-EP+. […] The sensorchip is deactivated with 1M ethanolamine HCl for 420 sec at a flowrate of 10 μl/min.
(§2) The analyte is injected over the captured antibody for 300 sec at a flowrate of 30 μl/min. The dissociation is done for 600 sec. Two-fold serial dilutions of each SIRP protein (Extracellular Domain+His-Tag) are injected as analyte with the highest concentrations indicated in table 36 below.

[2] = target: T2, cynomolgus SIRPγ (XP_005568591) …; assay: SPR
Procedure: as §1, §2

[3] = target: T3, cynomolgus SIRPβ1 (XP_005568598) …; assay: SPR
Procedure: as §1, §2

[4] = target: T4, cynomolgus SIRPα (EGM_02252) …; assay: SPR
Procedure: as §1, §2

Kd [1] [nM]	binding result [2]	binding result [3]	binding result [4]	Binder
56.5	no binding (tested: 1000 nM)	no binding (tested: 1000 nM)	no binding (tested: 1000 nM)	Antibody E21 (antibody, human IgG1, kappa, L234A L235A, V domains shown) VH: QVQLQESGPGLVRPSETLSLTCTVSGGSIRNYYWSWIRQPPGKGLEWIGFIYYTGRTFYNPSLKSRVTISLDMSKNQFSLKMTSVTAADTAVYYCARVRAYSGIGLDGTDVWGQGTTVTVSS VL: DIVMTQSPLSLPVTPGEPASISCKSSQSLLYSNAYNYLDWYLQRPGQSPQLLIYLGSNRASGVPDRFSGSGSGTDFTLKISRVEAEDVGVYYCMQALQTPLTFGGGTKVEIKR
13.1	no binding (tested: 1000 nM)	no binding (tested: 1000 nM)	no binding (tested: 1000 nM)	Antibody E4 (antibody, human IgG1, kappa, L234A L235A, V domains shown) VH: QVQLQESGPGLVRPSETLSLTCTVSGGSIRNYYWSWIRQPPGKGLEWIGFIYYNGRTFYNPSLKSRVTISLDMSKNQFSLKMTSVTAADTAVYYCARVRAYSGIGLDGTDVWGQGTTVTVSS VL: DIVMTQSPLSLPVTPGEPASISCKSSQSLLYSNGYAYLDWYLQRPGQSPQLLIYLGSNRASGVPDRFSGSGSGTDFTLKISRVEAEDVGVYYCMQALQTPLTFGGGTKVEIKR
